Data: US12186374B2 (Sanofi-Aventis Deutschland GmbH, priority 2014, dated 2025)

How the values were obtained:
[1] = test system: patients with T2DM; experiment: Treatment-emergent adverse events incl. serious, fatal, leading to discontinuation (Example 3); details: Safety population
[2] = test system: patients with T2DM; parameters: species or system human; details: in vivo
Text: The mission of the ARAC will be to adjudicate, in a timely manner, all allergic, or possible allergic events.
In case a patient experiences an allergic reaction or an allergic-like reaction this has to be reported as an adverse event and recorded in the e-CRF on the specific AE form for suspected allergic event. Additional information is collected on specific allergic reaction complementary form. Allergic reaction or possible allergic reaction will be adjudicated by the ARAC (Section 5.4.2).
The number (%) of patients with events adjudicated as allergic reactions by ARAC and with events adjudicated by ARAC as possibly related to the IMP will be summarized by treatment group. All the allergic events reported by the investigators on the AE form for suspected allergic event and its associated complementary forms (confirmed or not confirmed by ARAC) will be listed.

Gly(A21)-Arg(B31)-Arg(B32)-human insulin [Insulin Glargine]
191 n: Patients with any TEAE, number [1]
3: Number of patients experiencing serious TEAE(s): General disorders and administration site conditions ([1]; SOC) | Number of patients experiencing serious TEAE(s): Infections and infestations ([1]; SOC) | Number of patients experiencing TEAE(s) leading to permanent treatment discontinuation: Any TEAE leading to permanent treatment discontinuation [1]
(4.9%): % of patients experiencing serious TEAE(s): Any serious TEAE [1]
1: Number of patients experiencing serious TEAE(s): Cholecystitis acute ([1]; PT) | Number of patients experiencing serious TEAE(s): Gallbladder cancer ([1]; PT) | Number of patients experiencing serious TEAE(s): Glaucoma ([1]; PT) | Number of patients experiencing serious TEAE(s): Hypertension ([1]; PT) | Number of patients experiencing serious TEAE(s): Hypoglycaemia ([1]; PT) | Number of patients experiencing serious TEAE(s): Intervertebral disc protrusion ([1]; PT) | Number of patients experiencing serious TEAE(s): Kaposi’s sarcoma ([1]; PT) | Number of patients experiencing serious TEAE(s): Meniscus injury ([1]; PT) | Number of patients experiencing serious TEAE(s): Osteomyelitis ([1]; PT) | Number of patients experiencing serious TEAE(s): Pneumonia ([1]; PT) | Number of patients experiencing serious TEAE(s): Renal impairment ([1]; PT) | Number of patients experiencing serious TEAE(s): Wound infection ([1]; PT) | Number of patients experiencing TEAE(s) leading to permanent treatment discontinuation: Cardiac disorders ([1]; SOC) | Number of patients experiencing TEAE(s) leading to permanent treatment discontinuation: Neoplasms benign, malignant and unspecified (incl cysts and polyps) ([1]; SOC) | Number of patients experiencing TEAE(s) leading to permanent treatment discontinuation: Pregnancy, puerperium and perinatal conditions ([1]; SOC) | Number of patients experiencing serious TEAE(s): Eye disorders ([1]; SOC) | Number of patients experiencing serious TEAE(s): Hepatobiliary disorders ([1]; SOC) | Number of patients experiencing serious TEAE(s): Injury, poisoning and procedural complications ([1]; SOC) | Number of patients experiencing serious TEAE(s): Metabolism and nutrition disorders ([1]; SOC) | Number of patients experiencing serious TEAE(s): Musculoskeletal and connective tissue disorders ([1]; SOC) | Number of patients experiencing serious TEAE(s): Renal and urinary disorders ([1]; SOC) | Number of patients experiencing serious TEAE(s): Reproductive system and breast disorders ([1]; SOC) | Number of patients experiencing serious TEAE(s): Vascular disorders ([1]; SOC) | Number of patients with events adjudicated as allergic reaction by ARAC: Any category, Any event [2] | Number of patients with events adjudicated as allergic reaction by ARAC: Not Related to IMP [2] | Number of patients with events adjudicated as allergic reaction by ARAC: Other, Rhinitis allergic [2] | Number of patients with events adjudicated as allergic reaction by ARAC: category Other [2]
(0.3%): % of patients experiencing TEAE(s) leading to permanent treatment discontinuation: Cardiac disorders ([1]; SOC) | % of patients experiencing TEAE(s) leading to permanent treatment discontinuation: Neoplasms benign, malignant and unspecified (incl cysts and polyps) ([1]; SOC) | % of patients experiencing TEAE(s) leading to permanent treatment discontinuation: Pregnancy, puerperium and perinatal conditions ([1]; SOC) | % of patients experiencing serious TEAE(s): Eye disorders ([1]; SOC) | % of patients experiencing serious TEAE(s): Hepatobiliary disorders ([1]; SOC) | % of patients experiencing serious TEAE(s): Injury, poisoning and procedural complications ([1]; SOC) | % of patients experiencing serious TEAE(s): Metabolism and nutrition disorders ([1]; SOC) | % of patients experiencing serious TEAE(s): Musculoskeletal and connective tissue disorders ([1]; SOC) | % of patients experiencing serious TEAE(s): Renal and urinary disorders ([1]; SOC) | % of patients experiencing serious TEAE(s): Reproductive system and breast disorders ([1]; SOC) | % of patients experiencing serious TEAE(s): Vascular disorders ([1]; SOC)
(0.5%): % of patients experiencing serious TEAE(s): Cardiac disorders ([1]; SOC) | % of patients experiencing serious TEAE(s): Neoplasms benign, malignant and unspecified (incl cysts and polyps) ([1]; SOC)
2: Number of patients experiencing serious TEAE(s): Non-cardiac chest pain ([1]; PT) | Number of patients experiencing serious TEAE(s): Cardiac disorders ([1]; SOC) | Number of patients experiencing serious TEAE(s): Neoplasms benign, malignant and unspecified (incl cysts and polyps) ([1]; SOC)
18: Number of patients experiencing serious TEAE(s): Any serious TEAE [1]
0: Number of patients experiencing serious TEAE(s): Cholecystitis chronic ([1]; PT) | Number of patients experiencing serious TEAE(s): Hypoglycaemic seizure ([1]; PT) | Number of patients experiencing serious TEAE(s): Hypoglycaemic unconsciousness ([1]; PT) | Number of patients experiencing serious TEAE(s): Myocardial infarction ([1]; PT) | Number of patients experiencing serious TEAE(s): Osteoarthritis ([1]; PT) | Number of patients experiencing serious TEAE(s): Scar ([1]; PT) | Number of patients experiencing serious TEAE(s): Squamous cell carcinoma of the tongue ([1]; PT) | Number of patients experiencing serious TEAE(s): Subdural haematoma ([1]; PT) | Number of patients experiencing serious TEAE(s): Supraventricular tachycardia ([1]; PT) | Number of patients experiencing serious TEAE(s): Tendonitis ([1]; PT) | Number of patients experiencing TEAE(s) leading to permanent treatment discontinuation: Gastrointestinal disorders ([1]; SOC) | Number of patients experiencing TEAE(s) leading to permanent treatment discontinuation: Infections and infestations ([1]; SOC) | Number of patients experiencing TEAE(s) leading to permanent treatment discontinuation: Investigations ([1]; SOC) | Number of patients experiencing TEAE(s) leading to permanent treatment discontinuation: Nervous system disorders ([1]; SOC) | Number of patients experiencing serious TEAE(s): Nervous system disorders ([1]; SOC)
0.3%: % of patients with events adjudicated as allergic reaction by ARAC: Any category, Any event [2] | % of patients with events adjudicated as allergic reaction by ARAC: Not Related to IMP [2] | % of patients with events adjudicated as allergic reaction by ARAC: Other, Rhinitis allergic [2] | % of patients with events adjudicated as allergic reaction by ARAC: category Other [2]
(0.8%): % of patients experiencing serious TEAE(s): General disorders and administration site conditions ([1]; SOC) | % of patients experiencing serious TEAE(s): Infections and infestations ([1]; SOC) | % of patients experiencing TEAE(s) leading to permanent treatment discontinuation: Any TEAE leading to permanent treatment discontinuation [1]
(52.3%): Patients with any TEAE, percentage [1]
One: Events adjudicated as allergic reaction by ARAC [2]
